According to patent US20170306033A1 (Amgen, published 2017):

Legend:
human CGRP receptor = human CGRP receptor (human, UniProt Q16602 23-461; O60894 27-148); assay: cell-based or functional assay
human PAC1 receptor = biological target: T1, human PAC1 receptor (human, UniProt P41586 21-468); assay: cell-based or functional assay
T1 sequence: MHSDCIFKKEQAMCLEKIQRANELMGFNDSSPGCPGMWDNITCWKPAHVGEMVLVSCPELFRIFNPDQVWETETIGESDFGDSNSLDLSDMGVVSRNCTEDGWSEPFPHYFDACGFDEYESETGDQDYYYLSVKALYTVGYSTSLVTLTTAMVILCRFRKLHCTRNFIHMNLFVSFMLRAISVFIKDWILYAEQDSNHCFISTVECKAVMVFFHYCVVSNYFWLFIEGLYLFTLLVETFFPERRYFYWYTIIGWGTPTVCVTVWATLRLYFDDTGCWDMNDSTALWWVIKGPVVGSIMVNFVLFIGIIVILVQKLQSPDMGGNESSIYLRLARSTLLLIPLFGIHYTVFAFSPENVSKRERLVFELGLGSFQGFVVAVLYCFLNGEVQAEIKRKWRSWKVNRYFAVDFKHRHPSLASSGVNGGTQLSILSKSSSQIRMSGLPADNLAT

human CGRP receptor, sequence (Q16602 23-461 limits assumed, chain 1 of 2): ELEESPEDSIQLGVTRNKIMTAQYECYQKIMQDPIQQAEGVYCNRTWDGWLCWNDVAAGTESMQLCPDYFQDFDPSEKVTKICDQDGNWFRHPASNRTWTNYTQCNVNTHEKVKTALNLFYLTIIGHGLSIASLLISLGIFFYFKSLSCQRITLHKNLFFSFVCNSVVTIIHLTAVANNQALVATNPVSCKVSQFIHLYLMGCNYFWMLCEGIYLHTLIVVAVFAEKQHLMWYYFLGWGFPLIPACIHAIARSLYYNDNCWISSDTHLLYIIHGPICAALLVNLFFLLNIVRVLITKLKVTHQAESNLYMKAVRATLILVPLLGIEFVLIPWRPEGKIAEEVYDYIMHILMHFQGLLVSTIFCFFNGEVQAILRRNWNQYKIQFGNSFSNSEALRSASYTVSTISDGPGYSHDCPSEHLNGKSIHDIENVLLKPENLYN
human CGRP receptor, sequence (O60894 27-148 limits assumed, chain 2 of 2): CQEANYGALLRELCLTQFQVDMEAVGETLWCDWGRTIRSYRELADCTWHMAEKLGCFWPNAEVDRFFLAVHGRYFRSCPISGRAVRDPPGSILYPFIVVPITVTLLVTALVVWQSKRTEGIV

Binder | % inhibition of human CGRPR (human CGRP receptor) [%] | % inhibition of human PAC1 (human PAC1 receptor) [%]
iPS:327705 (bispecific antibody, human IgG1, kappa, lambda, N297G) light 1: DIQLTQSPSFLSASVGDRVTITCRASQSIGRSLHWYQQKPGKAPKLLIKYASQSLSGVPSRFSGSGSGTEFTLTISSLQPEDFATYYCHQSSRLPFTFGPGTKVDIKRTVAAPSVFIFPPSDEQLKSGTASVVCLLNNFYPREAKVQWKVDNALQSGNSQESVTEQDSKDSTYSLESTLTLSKADYEKHKVYACEVTHQGLSSPVTKSFNRGEC heavy 1: not shown light 2: QSVLTQPPSVSAAPGQKVTISCSGSSSNIGNNYVSWYQQLPGTAPKLLIYDNNKRPSGIPDRFSGSKSGTSATLGITGLQTGDEADYYCGTWDSRLSAVVFGGGTKLTVLGQPKANPTVTLFPPSSEELQANKATLVCLISDFYPGAVTVAWKADGSPVKAGVETTKPSKQSNNKYAAKSYLSLTPEQWKSHRSYSCQVTHEGSTVEKTVAPTECS heavy 2: QVQLVESGGGVVQPGRSLRLSCAASGFTFSSFGMHWVRQAPGKGLEWVAVISFDGSIKYSVDSVKGRFTISRDNSKNTLFLQMNSLRAEDTAVYYCARDRLNYYDSSGYYHYKYYGMAVWGQGTTVTVSSASTKGPSVFPLAPSSKSTSGGTAALGCLVKDYFPEPVTVSWNSGALTSGVHTFPAVLQSSGLYSLESVVTVPSSSLGTQTYICNVNHKPSNTKVDKKVEPKSCDKTHTCPPCPAPELLGGPSVFLFPPKPKDTLMISRTPEVTCVVVDVSHEDPEVKFNWYVDGVEVHNAKTKPCEEQYGSTYRCVSVLTVLHQDWLNGKEYKCKVSNKALPAPIEKTISKAKGQPREPQVYTLPPSRKEMTKNQVSLTCLVKGFYPSDIAVEWESNGQPENNYKTTPPVLKSDGSFFLYSKLTVDKSRWQQGNVFSCSVMHEALHNHYTQKSLSLSPGK | 88 | 56
iPS:326634 (bispecific antibody, human IgG2, kappa, lambda) light 1: DIQLTQSPSFLSASVGDRVTITCRASQSIGRSLHWYQQKPGKAPKLLIKYASQSLSGVPSRFSGSGSGTEFTLTISSLQPEDFATYYCHQSSRLPFTFGPGTKVDIKRTVAAPSVFIFPPSDEQLKSGTASVVCLLNNFYPREAKVQWKVDNALQSGNSQESVTEQDSKDSTYSLESTLTLSKADYEKHKVYACEVTHQGLSSPVTKSFNRGEC heavy 1: QVQLVESGAEVVKPGASVKVSCKASGFTFSRFAMHWVRQAPGQGLEWMGVISYDGGNKYYAESVKGRVTMTRDTSTSTLYMELSSLRSEDTAVYYCARGYDVLTGYPDYWGQGTLVTVSSASTKGPSVFPLAPCSRSTSESTAALGCLVKDYFPEPVTVSWNSGALTSGVHTFPAVLQSSGLYSLKSVVTVPSSNFGTQTYTCNVDHKPSNTKVDKTVERKCCVECPPCPAPPVAGPSVFLFPPKPKDTLMISRTPEVTCVVVDVSHEDPEVQFNWYVDGVEVHNAKTKPREEQFNSTFRVVSVLTVVHQDWLNGKEYKCKVSNKGLPAPIEKTISKTKGQPREPQVYTLPPSREEMTKNQVSLTCLVDGFYPSDIAVEWESNGQPENNYDTTPPMLDSDGSFFLYSDLTVDKSRWQQGNVFSCSVMHEALHNHYTQKSLSLSPGK light 2: not shown heavy 2: not shown | 66 | 43
iPS:327697 (bispecific antibody, human IgG1, kappa, lambda, N297G) light 1: DIQLTQSPSFLSASVGDRVTITCRASQSIGRSLHWYQQKPGKAPKLLIKYASQSLSGVPSRFSGSGSGTEFTLTISSLQPEDFATYYCHQSSRLPFTFGEGTKVDIKRTVAAPSVFIFPPSDEQLKSGTASVVCLLNNFYPREAKVQWKVDNALQSGNSQESVTEQDSKDSTYSLESTLTLSKADYEKHKVYACEVTHQGLSSPVTKSFNRGEC heavy 1: not shown light 2: QSVLTQPPSVSAAPGQKVTISCSGSSSNIGNNYVSWYQQLPGTAPKLLIYDNNKRPSGIPDRFSGSKSGTSTTLGITGLQTGDEADYYCGTWDSRLSAVVFGKGTKLTVLGQPKANPTVTLFPPSSEELQANKATLVCLISDFYPGAVTVAWKADGSPVKAGVETTKPSKQSNNKYAAKSYLSLTPEQWKSHRSYSCQVTHEGSTVEKTVAPTECS heavy 2: QVQLVESGGGVVQPGRSLRLSCAASGFTFSSFGMHWVRQAPGKELEWVAVISFDGSIKYSVDSVKGRFTISRDNSKNTLFLQMNSLRAEDTAVYYCARDRLNYYESSGYYHYKYYGMAVWGQGTTVTVSSASTKGPSVFPLAPSSKSTSGGTAALGCLVKDYFPEPVTVSWNSGALTSGVHTFPAVLQSSGLYSLESVVTVPSSSLGTQTYICNVNHKPSNTKVDKKVEPKSCDKTHTCPPCPAPELLGGPSVFLFPPKPKDTLMISRTPEVTCVVVDVSHEDPEVKFNWYVDGVEVHNAKTKPCEEQYGSTYRCVSVLTVLHQDWLNGKEYKCKVSNKALPAPIEKTISKAKGQPREPQVYTLPPSRKEMTKNQVSLTCLVKGFYPSDIAVEWESNGQPENNYKTTPPVLKSDGSFFLYSKLTVDKSRWQQGNVFSCSVMHEALHNHYTQKSLSLSPGK | 88 | 39
iPS:327707 (bispecific antibody, human IgG1, kappa, lambda, N297G) light 1: DIQMTQSPSSLSASVGDRITITCRASQSISRYLNWYQQKPGKAPKLLIYAASSLQSGIPSRFSGSGSGTDFTLTINSLQPEDFATYFCQQSYSPPFTFGEGTKVDIKRTVAAPSVFIFPPSDEQLKSGTASVVCLLNNFYPREAKVQWKVDNALQSGNSQESVTEQDSKDSTYSLESTLTLSKADYEKHKVYACEVTHQGLSSPVTKSFNRGEC heavy 1: not shown light 2: QSVLTQPPSVSAAPGQKVTISCSGSSSNIGNNYVSWYQQLPGTAPKLLIYDNNKRPSGIPDRFSGSKSGTSATLGITGLQTGDEADYYCGTWDSRLSAVVFGKGTKLTVLGQPKANPTVTLFPPSSEELQANKATLVCLISDFYPGAVTVAWKADGSPVKAGVETTKPSKQSNNKYAAKSYLSLTPEQWKSHRSYSCQVTHEGSTVEKTVAPTECS heavy 2: QVQLVESGGGVVQPGRSLRLSCAASGFTFSSFGMHWVRQAPGKELEWVAVISFDGSIKYSVDSVKGRFTISRDNSKNTLFLQMNSLRAEDTAVYYCARDRLNYYDSSGYYHYKYYGMAVWGQGTTVTVSSASTKGPSVFPLAPSSKSTSGGTAALGCLVKDYFPEPVTVSWNSGALTSGVHTFPAVLQSSGLYSLESVVTVPSSSLGTQTYICNVNHKPSNTKVDKKVEPKSCDKTHTCPPCPAPELLGGPSVFLFPPKPKDTLMISRTPEVTCVVVDVSHEDPEVKFNWYVDGVEVHNAKTKPCEEQYGSTYRCVSVLTVLHQDWLNGKEYKCKVSNKALPAPIEKTISKAKGQPREPQVYTLPPSRKEMTKNQVSLTCLVKGFYPSDIAVEWESNGQPENNYKTTPPVLKSDGSFFLYSKLTVDKSRWQQGNVFSCSVMHEALHNHYTQKSLSLSPGK | 73 | 72
iPS:327706 (bispecific antibody, human IgG1, kappa, lambda, N297G) light 1: EIVLTQSPATLSLSPGERATLSCRASQSVGRSLHWYQQKPGQAPRLLIKYASQSLSGIPARFSGSGSGTDFTLTISSLEPEDFAVYYCHQSSRLPFTFGPGTKVDIKRTVAAPSVFIFPPSDEQLKSGTASVVCLLNNFYPREAKVQWKVDNALQSGNSQESVTEQDSKDSTYSLESTLTLSKADYEKHKVYACEVTHQGLSSPVTKSFNRGEC heavy 1: not shown light 2: QSVLTQPPSVSAAPGQKVTISCSGSSSNIGNNYVSWYQQLPGTAPKLLIYDNNKRPSGIPDRFSGSKSGTSATLGITGLQTGDEADYYCGTWDSRLSAVVFGGGTKLTVLGQPKANPTVTLFPPSSEELQANKATLVCLISDFYPGAVTVAWKADGSPVKAGVETTKPSKQSNNKYAAKSYLSLTPEQWKSHRSYSCQVTHEGSTVEKTVAPTECS heavy 2: QVQLVESGGGVVQPGRSLRLSCAASGFTFSSFGMHWVRQAPGKGLEWVAVISFDGSIKYSVDSVKGRFTISRDNSKNTLFLQMNSLRAEDTAVYYCARDRLNYYDSSGYYHYKYYGMAVWGQGTTVTVSSASTKGPSVFPLAPSSKSTSGGTAALGCLVKDYFPEPVTVSWNSGALTSGVHTFPAVLQSSGLYSLESVVTVPSSSLGTQTYICNVNHKPSNTKVDKKVEPKSCDKTHTCPPCPAPELLGGPSVFLFPPKPKDTLMISRTPEVTCVVVDVSHEDPEVKFNWYVDGVEVHNAKTKPCEEQYGSTYRCVSVLTVLHQDWLNGKEYKCKVSNKALPAPIEKTISKAKGQPREPQVYTLPPSRKEMTKNQVSLTCLVKGFYPSDIAVEWESNGQPENNYKTTPPVLKSDGSFFLYSKLTVDKSRWQQGNVFSCSVMHEALHNHYTQKSLSLSPGK | 87 | 103
iPS:327696 (bispecific antibody, human IgG1, kappa, lambda, N297G) light 1: not shown heavy 1: not shown light 2: QSVLTQPPSVSAAPGQKVTISCSGSSSNIGNNYVSWYQQLPGTAPKLLIYDNNKRPSGIPDRFSGSKSGTSTTLGITGLQTGDEADYYCGTWDSRLSAVVFGKGTKLTVLGQPKANPTVTLFPPSSEELQANKATLVCLISDFYPGAVTVAWKADGSPVKAGVETTKPSKQSNNKYAAKSYLSLTPEQWKSHRSYSCQVTHEGSTVEKTVAPTECS heavy 2: QVQLVESGGGVVQPGRSLRLSCAASGFTFSSFGMHWVRQAPGKELEWVAVISFDGSIKYSVDSVKGRFTISRDNSKNTLFLQMNSLRAEDTAVYYCARDRLNYYESSGYYHYKYYGMAVWGQGTTVTVSSASTKGPSVFPLAPSSKSTSGGTAALGCLVKDYFPEPVTVSWNSGALTSGVHTFPAVLQSSGLYSLESVVTVPSSSLGTQTYICNVNHKPSNTKVDKKVEPKSCDKTHTCPPCPAPELLGGPSVFLFPPKPKDTLMISRTPEVTCVVVDVSHEDPEVKFNWYVDGVEVHNAKTKPCEEQYGSTYRCVSVLTVLHQDWLNGKEYKCKVSNKALPAPIEKTISKAKGQPREPQVYTLPPSRKEMTKNQVSLTCLVKGFYPSDIAVEWESNGQPENNYKTTPPVLKSDGSFFLYSKLTVDKSRWQQGNVFSCSVMHEALHNHYTQKSLSLSPGK | 87 | 10
